Measured values as given in patent US20210388087A1 (Chugai, published 2021).
Where a chain is given by its changes, count along the chain named.

B1: GLS3000 N28P (antibody, name in Kabat numbering, V domains shown)
VH: QVQLVESGGGVVQPGRSLRLSCAASGFTFSNAWMHWVRQAPGKGLEWVAQIKAKSNNYATYYAESVKGRFTISRDDSKNSLYLQMNSLKTEDTAVYYCRYVHYGAYYGVDAWGQGTTVTVSS
VL: DIVMTQSPLSLPVTPGEPASISCRSSQSLVHSPRNTYLHWYQQKPGQAPRLLIYKVSNRFSGVPDRFSGSGSGTDFTLKISRVEAEDVGVYYCGQGTQVPYTFGQGTKLEIK
notes: one-arm IgG as m2
B2: GLS3000 N30A (antibody, name in Kabat numbering, V domains shown)
VH: B1 VH
VL: B1 VL with P33N, N35A
notes: one-arm IgG as m2
B3: GLS3000 N53A (antibody, name in Kabat numbering, V domains shown)
VH: B1 VH
VL: B1 VL with P33N, N58A
notes: one-arm IgG as m2
B4: GLS3000 N30G (antibody, name in Kabat numbering, V domains shown)
VH: B1 VH
VL: B1 VL with P33N, N35G
notes: one-arm IgG as m2
B5: GLS3000 N53I (antibody, name in Kabat numbering, V domains shown)
VH: B1 VH
VL: B1 VL with P33N, N58I
notes: one-arm IgG as m2
B6: GLS3000 N30V (antibody, name in Kabat numbering, V domains shown)
VH: B1 VH
VL: B1 VL with P33N, N35V
notes: one-arm IgG as m2
B7: GLS3000 N30Q (antibody, name in Kabat numbering, V domains shown)
VH: B1 VH
VL: B1 VL with P33N, N35Q
notes: one-arm IgG as m2
B8: GLS3000 N28T (antibody, name in Kabat numbering, V domains shown)
VH: B1 VH
VL: B1 VL with P33T
notes: one-arm IgG as m2
B9: GLS3000 N30Y (antibody, name in Kabat numbering, V domains shown)
VH: B1 VH
VL: B1 VL with P33N, N35Y
notes: one-arm IgG as m2
B10: GLS3000 N30M (antibody, name in Kabat numbering, V domains shown)
VH: B1 VH
VL: B1 VL with P33N, N35M
notes: one-arm IgG as m2
B11: GLS3000 N30E (antibody, name in Kabat numbering, V domains shown)
VH: B1 VH
VL: B1 VL with P33N, N35E
notes: one-arm IgG as m2
B12: GLS3000 N28V (antibody, name in Kabat numbering, V domains shown)
VH: B1 VH
VL: B1 VL with P33V
notes: one-arm IgG as m2
B13: GLS3000 N30D (antibody, name in Kabat numbering, V domains shown)
VH: B1 VH
VL: B1 VL with P33N, N35D
notes: one-arm IgG as m2
B14: GLS3000 N28Q (antibody, name in Kabat numbering, V domains shown)
VH: B1 VH
VL: B1 VL with P33Q
notes: one-arm IgG as m2
B15: GLS3000 N30W (antibody, name in Kabat numbering, V domains shown)
VH: B1 VH
VL: B1 VL with P33N, N35W
notes: one-arm IgG as m2
B16: GLS3000 N28W (antibody, name in Kabat numbering, V domains shown)
VH: B1 VH
VL: B1 VL with P33W
notes: one-arm IgG as m2
B17: GLS3000 N30T (antibody, name in Kabat numbering, V domains shown)
VH: B1 VH
VL: B1 VL with P33N, N35T
notes: one-arm IgG as m2
B18: GLS3000 N53F (antibody, name in Kabat numbering, V domains shown)
VH: B1 VH
VL: B1 VL with P33N, N58F
notes: one-arm IgG as m2
B19: GLS3000 N53E (antibody, name in Kabat numbering, V domains shown)
VH: B1 VH
VL: B1 VL with P33N, N58E
notes: one-arm IgG as m2
B20: GLS3000 N30F (antibody, name in Kabat numbering, V domains shown)
VH: B1 VH
VL: B1 VL with P33N, N35F
notes: one-arm IgG as m2
B21: GLS3000 N53D (antibody, name in Kabat numbering, V domains shown)
VH: B1 VH
VL: B1 VL with P33N, N58D
notes: one-arm IgG as m2
B22: GLS3000 N30L (antibody, name in Kabat numbering, V domains shown)
VH: B1 VH
VL: B1 VL with P33N, N35L
notes: one-arm IgG as m2
B23: GLS3000 N28S (antibody, name in Kabat numbering, V domains shown)
VH: B1 VH
VL: B1 VL with P33S
notes: one-arm IgG as m2
B24: GLS3000 N30S (antibody, name in Kabat numbering, V domains shown)
VH: B1 VH
VL: B1 VL with P33N, N35S
notes: one-arm IgG as m2
B25: GLS3000 N53K (antibody, name in Kabat numbering, V domains shown)
VH: B1 VH
VL: B1 VL with P33N, N58K
notes: one-arm IgG as m2
B26: GLS3000 N30I (antibody, name in Kabat numbering, V domains shown)
VH: B1 VH
VL: B1 VL with P33N, N35I
notes: one-arm IgG as m2
B27: GLS3000 N30P (antibody, name in Kabat numbering, V domains shown)
VH: B1 VH
VL: B1 VL with P33N, N35P
notes: one-arm IgG as m2
B28: GLS3000 N53H (antibody, name in Kabat numbering, V domains shown)
VH: B1 VH
VL: B1 VL with P33N, N58H
notes: one-arm IgG as m2
B29: GLS3000 N30K (antibody, name in Kabat numbering, V domains shown)
VH: B1 VH
VL: B1 VL with P33N, N35K
notes: one-arm IgG as m2
B30: GLS3000 N53G (antibody, name in Kabat numbering, V domains shown)
VH: B1 VH
VL: B1 VL with P33N, N58G
notes: one-arm IgG as m2
B31: GLS3000 N30R (antibody, name in Kabat numbering, V domains shown)
VH: B1 VH
VL: B1 VL with P33N, N35R
notes: one-arm IgG as m2
B32: GLS3000 N30H (antibody, name in Kabat numbering, V domains shown)
VH: B1 VH
VL: B1 VL with P33N, N35H
notes: one-arm IgG as m2
B33: GLS3000 N28Y (antibody, name in Kabat numbering, V domains shown)
VH: B1 VH
VL: B1 VL with P33Y
notes: one-arm IgG as m2

The binders below were run against T1, CD3 epsilon homodimer protein (UniProt P07766 23-126) (assay: SPR Biacore T200, CD3e homodimer on chip, vs unaltered GLS3000 antibody).
T1 construct: also called CD3 (CD3 epsilon)
T1 sequence (P07766 23-126): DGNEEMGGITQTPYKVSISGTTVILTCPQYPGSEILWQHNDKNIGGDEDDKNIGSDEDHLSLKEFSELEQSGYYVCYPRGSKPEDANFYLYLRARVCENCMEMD

Binder | ratio of amounts bound (Z=Y/X)
B1 | 0.36
B2 | 0.5
B3 | 0.61
B4 | 0.47
B5 | 0.5
B6 | 0.61
B7 | 0.87
B8 | 0.45
B9 | 1.04
B10 | 0.8
B11 | 0.44
B12 | 0.36
B13 | 0.34
B14 | 0.37
B15 | 0.99
B16 | 0.41
B17 | 0.29

Binder | ratio of amounts bound (Z=Y/X)
B18 | 0.69
B19 | 0.54
B20 | 1.1
B21 | 0.34
B22 | 0.7
B23 | 0.32
B24 | 0.29
B25 | 1.08
B26 | 0.61
B27 | 0.31
B28 | 1.18
B29 | 1.65
B30 | 0.76
B31 | 1.86
B32 | 0.98
B33 | 0.26
